# Earlier results in article PMC9331682.
# Target: PD-1 (Homo sapiens) (UniProt Q15116)
# Sequence (Q15116 25-170): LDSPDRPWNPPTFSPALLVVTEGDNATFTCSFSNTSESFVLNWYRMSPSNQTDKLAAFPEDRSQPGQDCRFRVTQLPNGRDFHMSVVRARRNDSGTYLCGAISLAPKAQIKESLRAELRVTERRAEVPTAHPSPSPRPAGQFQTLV
substance,measurement,value
Dostarlimab,Kd,0.3 nM
